{
  "source": "the nanobody polyreactivity screen of Harvey et al. (2022)",
  "data": [
    {"test": "yeast display, Sf9 membrane polyspecificity reagent, FACS + sequencing; frameworks hold sequencing errors", "summary_of_the_method": "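In a synthetic yeast display library (Saccharomyces cerevisiae BJ5465), nanobody expression was induced with galactose for 36–48 hours. FACS gates were set low and high (top ~1%) using anti-HA fluorescence for expression and streptavidin fluorescence for binding of the Sf9 membrane reagent. Each polyreactivity label is drawn from the gate of origin.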", "values": [
      {"sequence": "QVQLVESGGGLVQEGGSLRLSCAASGRIFGVNAMGWYRQAPGKERELVAAIFSGGSTYYADSVKGRFTISRDNAKNTVYLQMNSLKPEDTAVYYCAARFARYDWSMYYWGQGTQVTVSS", "polyreactivity (PSR sort gate)": "low polyreactivity"},
      {"sequence": "QVQLVESGGGLVQEGGSLRLSCAASGRNFDVYAMGWYRQAPGKERELVAAITWDGGSTYYADSVKGRFTISRDNAKNSVYLQMNSEKPEDKAVYYCAAEPVYTQRKGYDYWGQGTQVTVSS", "polyreactivity (PSR sort gate)": "low polyreactivity"},
      {"sequence": "QVQLVESGGGLVQEGGSLRLSCAASGRTFWYYGMGWYRQAHGKERELVAAISRSGGRTSYADSVKGRFTISRDNAKNTVYLQMIRLKPEDTAVYYCATDGYYRYGYWGQGTQVTVSS", "polyreactivity (PSR sort gate)": "high polyreactivity"},
      {"sequence": "QVQLVESGGGLVQEGGSLRLSCAASGRTICLNDMGWYRQAPGKERELVAGITRSGGSTYYADSVKGRFTISRDNAKNTVYLQMNSLKPEDSAVYYCAADFKPLYYDEYDYWGQGTQVTVSS", "polyreactivity (PSR sort gate)": "low polyreactivity"},
      {"sequence": "QVQLVESGGGLVQEGGSLRLSCAASGSIFFYYAMGWYRPAPGKERELVAAIRSGTSTNYADSVKGRFTISLDNAKNTVYLQMNSLKPEDTAVYYCNKDTDWSWSAITSPIFDYWGQGTQVTVSS", "polyreactivity (PSR sort gate)": "low polyreactivity"},
      {"sequence": "QVQLVESGGGLVQEGGSLRLSCAASGSIFGRNAMGWYRQAPGKERELVAAITSRTGSTFYADSVKGRFTISRDNAKNTDYLQMNSLKPEATAVYYCKAAGPAFSYYHWLWGDYNSWGQGTQVTVSS", "polyreactivity (PSR sort gate)": "low polyreactivity"},
      {"sequence": "QVQLVESGGGLVQEGGSLRLSCAASGSIFGWYAMGWYRQAPGKEWELVAAIRRGGSTNYADSVKGRFTISRDNAKNTVYLQMNSLKAEVTAVYYCAAGKSGYSKRIFRYSFDYWGQGTQVTVSS", "polyreactivity (PSR sort gate)": "high polyreactivity"},
      {"sequence": "QVQLVESGGGLVQEGGSLRLSCAASGSIFVNNGMGWYRQAPGKERELVAAIRLSTGSTYYADSVKGRFTISRDNAKNTVYLQMNSLKPEDTAVYFCNAVRYPRLMYYWGQGTQVTVSS", "polyreactivity (PSR sort gate)": "high polyreactivity"},
      {"sequence": "QVQLVESGGGLVQEGGSLRLSCAASGSSFCSYAMGRYRQAPGKERELVAAISSSGDSTYADSVKGRFTMSRDNAKNTVYLQMNSLKPEDTAVYYCAVGGAGSDDYWGQGTQVTVSS", "polyreactivity (PSR sort gate)": "low polyreactivity"},
      {"sequence": "QVQLVESGGGLVQEGGSLRLSCAASGSTFNAYAMGWYRQAPGKERELVATINDDGGTTYYADSVKGRFTISRDNAKNTVYLQMNSLKPEDTAVYYCAASGFDTSYETAPSDSWGYDYWGQGTQVTVSS", "polyreactivity (PSR sort gate)": "low polyreactivity"},
      {"sequence": "QVQLVESGGGLVQEGGSLRLSCAASGSTFRYYAMGWYRQAPGKERELVASISSSGGNTYGDAVKGRFTISRDNAKNTVYLQMNSLKPEDTAVYYCNADWALLYSPPYTYRYGYWGQGTQVTVSS", "polyreactivity (PSR sort gate)": "low polyreactivity"},
      {"sequence": "QVQLVESGGGLVQEGGSLRLSCAASGSTFSIYAMGWYRQAPGKERELVAGISGSGGSTYYADSVKGRFTISRDNAKNTVYLQMNSLKPEDTAVYYCAKRVLWGLDYCGQGTQVTVSS", "polyreactivity (PSR sort gate)": "low polyreactivity"},
      {"sequence": "QVQLVESGGGLVQEGGSLRLSCAASGYTFGRYFMGWYRQAPGKEREFVAAISRGGGSTYYADSVKGRFTISRDNAKNTVYLQMNSLKPEDTAVYYCDTRSSNAEYWGQGTQVTVSS", "polyreactivity (PSR sort gate)": "high polyreactivity"},
      {"sequence": "QVQLVESGGGLVQEGGSLRLSCASSGGIFDTNAKGWYRQARGKDREFVAAITGSGGSTYYADSVKGRFTISRDNAKNTVYLQMNSLIPEDTAVYYCAAPLSYYWVYIVRDGYDYWGQGTQVTVSS", "polyreactivity (PSR sort gate)": "low polyreactivity"},
      {"sequence": "QVQLVESGGGLVQEGGSLRLSCSASGSIFYVYAMGRYRPARGKDRELVAAISSIDGNTYYADSVKGRFTISRDNAKNTVYLQMNSLKPEETAVYYCAAAYYNTDYYYWGKGTQVTVSS", "polyreactivity (PSR sort gate)": "low polyreactivity"},
      {"sequence": "QVQLVESGGGLVQEGGSLRLTCAASGSTFIGNAMGGYRQAPGKERELVAAITSSGGSTYYADSVKGRFTISRDNAKNTVYLQMNSLKPEDTALYYCAAKTWARGHYGYQARSNYWGQGTQVTVSS", "polyreactivity (PSR sort gate)": "high polyreactivity"},
      {"sequence": "QVQLVESGGGLVQERGSLRLSCADSGFIFWYYAMGWDRQAPGKERELVAAISWSGDSTYYADSVKGRFTISRDNANNTVYLQMKSLKPEYTAVYYCAVYEELDVFYNGYDYWGQGTQVTVSS", "polyreactivity (PSR sort gate)": "high polyreactivity"},
      {"sequence": "QVQLVESGGGLVQGGGSLRLSCAASGGTIGRNAMGWYRQAPGKERELVANITRRGGSTYYADSVKGRFTISRDNAKNTVYLQMNSLKAEDTAVYYCAARDVYRGGLFDYWGQGTQVSVSS", "polyreactivity (PSR sort gate)": "high polyreactivity"},
      {"sequence": "QVQLVESGGGLVQGGGSLRLSCAASGITFCQYAMRWYRQAPGKERELVAGIRFSGSTTYYADSVKGRFTISRDYAKITVYLQMNSLKPEDTAVYDCNVDYYSGLYYYDSWGQGTQVTVSS", "polyreactivity (PSR sort gate)": "low polyreactivity"},
      {"sequence": "QVQLVESGGGLVQGGGSLRLSCAASGRIFKYYAMGWYRQAPGKERELVADISWRGGSTYYADSVKGRFTISRDNAKNTVYLQMNCLKPEDTAVYYCNAVSPRPGFDWGQGTQVTVSS", "polyreactivity (PSR sort gate)": "high polyreactivity"},
      {"sequence": "QVQLVESGGGLVQGGGSLRLSCAASGRIFTFYAMGWSRPAPGKARELVASITGGGNTYYADSVKGRFTISRDNAKNTVNLQMNSLKPEDTAVYYCAADDGYRELDYWGQGTQVTVSS", "polyreactivity (PSR sort gate)": "low polyreactivity"},
      {"sequence": "QVQLVESGGGLVQGGGSLRLSCAASGRIGKYAMGWYRQAPGKERELVATISSTGTTNYADSVKGRFTISRDNAKNTVYLQMNSLKPEDTAVYYCAARWEYVGYRRRYYRFDYWGQGTQVTVSS", "polyreactivity (PSR sort gate)": "high polyreactivity"},
      {"sequence": "QVQLVESGGGLVQGGGSLRLSCAASGRTLSYYAKGWYRQAPGKERELVADISWSGGSTYYADSVKGRFTISRDNAKNTVYLQMNSLKPEDTAVYYCAARVPGSIRSVGSVKQKYYYWGQGTQVTVSS", "polyreactivity (PSR sort gate)": "high polyreactivity"},
      {"sequence": "QVQLVESGGGLVQPGGSLLLSCAASRITFDHYAMAWYRRAPGKERELVAAITSGGNTNYADSVKGRFTISRDNAKNPVYLQMNSLKPEDTAVYYCNAGYDVCYYYWGKGTQVTVSS", "polyreactivity (PSR sort gate)": "low polyreactivity"},
      {"sequence": "QVQLVESGGGLVQPGGSLRLLFAASGSNFVYNEMGWYRQAPGKERELVAGIDWSGDRTYADSVKRRFTNSRDNAKNTVYLQMNSLKQEDTAVKYCNADEWLWDEIIPFAVDYWGQGTQVTVSS", "polyreactivity (PSR sort gate)": "low polyreactivity"},
      {"sequence": "QVQLVESGGGLVQPGGSLRLSCAASGFIFPSYDMGWYIQAPGKERELVAAITSDVNSYYADSVKGRFTISRDNAKNTVYLQMTSLKPEDTAFYSCNADADDYRDYQDYDYWGQGTQVTVSS", "polyreactivity (PSR sort gate)": "low polyreactivity"},
      {"sequence": "QVQLVESGGGLVQPGGSLRLSCAASGFTFYPYVMGWYRQAPGKERELVAPINSGGARTYYADSEKGRFTISRDNAKNTVYYQIIRLKPEDTAVYYCAARTVVGGRIYYYWGQGTQVTVSS", "polyreactivity (PSR sort gate)": "low polyreactivity"},
      {"sequence": "QVQLVESGGGLVQPGGSLRLSCAASGITFIPNALGWYRQAPGKEREFVAGITWSGGRTYYADSVKGRFTISRDNATNTVYLQMNSLKPEDTAVYYCAAEPPTYKLLDFWGQGTQVTVSS", "polyreactivity (PSR sort gate)": "low polyreactivity"},
      {"sequence": "QVQLVESGGGLVQPGGSLRLSCAASGRTLQRNAMVWYRQAPGKERELVAAISSSGGSTYYADSVKGRFTISRDNAKNTFYLQMNSLKPDDTAVYYCNTDSVYRYHYWGQGTEVTVSS", "polyreactivity (PSR sort gate)": "high polyreactivity"},
      {"sequence": "QVQLVESGGGLVQPGGSLRLSCAASGSIFSYNTMGWYRQAPGKERELVAAISGRGGSTNYADSVKGRFTISRDNAKNTVYLQMNSLKPEDTAVYYCAKETWVPYRNGFFPLKGDYWGQGTQVTVSS", "polyreactivity (PSR sort gate)": "low polyreactivity"},
      {"sequence": "QVQLVESGGGLVQPGGSLRLSCAASGSIFYGYTMGWYRQEPGKERELVAAIRKSGGSTNYADSVKWRFTISRDIAKNTVYLQMNSLKPEDTAVYYCAAAYYRGRGYFWGQGTQVTVSS", "polyreactivity (PSR sort gate)": "high polyreactivity"},
      {"sequence": "QVQLVESGGGLVQPGGSLRLSCAASGSTFDWYAMAWYRQAPGKQRELVAAISSDDSTYYADSVKGRFTISRDNAKNTVYLQMNSLKPEETAVYYCAFDVYSDYGDYGFWGQGTQVTVSS", "polyreactivity (PSR sort gate)": "low polyreactivity"},
      {"sequence": "QVQLVESGGGLVQSGGSLRLSCAASGFIFKLNAMGWYRPAPGKERELVATITRGGDTKYADSVKGRFTISRDNAKNTVYLQMNSLKPEDTAVEYCAARYTPSSYIYRFYNFYGYDYWGQGTQVTVSS", "polyreactivity (PSR sort gate)": "high polyreactivity"},
      {"sequence": "QVQLVESGGGLVQSGGSLRLSCAASGFIFLSYAMGWYRQAPGKERELVAAISRRGGSTYYADSVKGRFTISRDNAKYTVYLQMNSLKPEDNAVYYCAADYGRITYNYWGQGTQVTVSS", "polyreactivity (PSR sort gate)": "high polyreactivity"},
      {"sequence": "QVQLVESGGGLVQSGGSLRLSCAASGITFARYTMGWYRQAPGKVRELVAAISYAGNTYYADSVKGRFTISRDNAKNTVYLQMNSLKPEDTAVYYCAREYTYYPRWVGYDAYGEDYWGQGTQVTVSS", "polyreactivity (PSR sort gate)": "low polyreactivity"},
      {"sequence": "QVQLVESGGGLVQSGGSLRLSCAASGITFDYYDMGWYRQAPGKERELVATITSDGSTTYADSVKGRFTISRDNAKNTVYLQMNSLKPEDTAVYYCDKRYWSYQYGYRMYYWGQGTQVTVSS", "polyreactivity (PSR sort gate)": "high polyreactivity"},
      {"sequence": "QVQLVESGGGLVQSGGSLRLSCAASGRIFARNAMGWYRQAPGKEREFVAAITFSGGSTYYADSVKGRFTISRDNAKNTVYLQMNSLKPEDTAVYYCAARSWRVLTREDYWGQGTQVTVSS", "polyreactivity (PSR sort gate)": "high polyreactivity"},
      {"sequence": "QVQLVESGGGLVQSGGSLRLSCAASGRIFHYNAMGWYRQAPGKERELVAVITTIGGDTYYADSVKGRFTISRDNAKNTVYLQMNSLKPEDTAVYYCARDRYDNPYDQDLDYWGQGTQVTVSS", "polyreactivity (PSR sort gate)": "low polyreactivity"},
      {"sequence": "QVQLVESGGGLVQSGGSLRLSCAASGRIFRYYAMGSYRQAPGKERELVSAITRGGSTNYADSVKGRFTISRDNAKNTVYLQMNSLKPEDTADYYCATRQSWYPRWMDYWGQGSQVTVSS", "polyreactivity (PSR sort gate)": "high polyreactivity"},
      {"sequence": "QVQLVESGGGLVQSGGSLRLSCAASGRIFVPNAMGWYRQAPGKERELVAAITGSGGSTYADSVKGRFTISRDNAKNTVYLQMNSLNPEDTAVYYCAKKTWYSYYWGQGTQVTVSS", "polyreactivity (PSR sort gate)": "high polyreactivity"},
      {"sequence": "QVQLVESGGGLVQSGGSLRLSCAASGRTFRYYAMGWYRQAPGKERELVAAISSSGDRTYYADSVKGRFTISRDNAKNTVYLQMNSLKPEDTAVYFCAADRGARGDYWGQGTQVTVSS", "polyreactivity (PSR sort gate)": "high polyreactivity"},
      {"sequence": "QVQLVESGGGLVQSGGSLRLSCAASGRTFYRYAMGWYRQAPGKERELVAAISYSTTRTYYADSVKGRFTISRDIAKNTVYLQMNSLKPEETAVYYCAAYGWSRFGYDYWGQGSQVTVSS", "polyreactivity (PSR sort gate)": "high polyreactivity"},
      {"sequence": "QVQLVESGGGLVQSGGSLRLSCAASGSIFDYYAMGWYRQAPGKERELVASINSSGTGTYYADSVKGRFTFSRDNAKNTVSLQVNSMKPEDTAVYYCATRQAVGYSSGRGYGYWGQGTQETVSS", "polyreactivity (PSR sort gate)": "low polyreactivity"}
    ]}
  ]
}
